A protein production outcome set (Wang et al. 2014)

Assay: label from the status in PepcDB records

Row | Sequence | protein production
1 | MKGFAMLGINKLGWIEKERPVAGSYDAIVRPLAVSPCTSDIHTVFEGALGDRKNMILGHEAVGEVVEVGSEVKDFKPGDRVIVPCTTPDWRSLEVQAGFQQHSNGMLAGWKFSNFKDGVFGEYFHVNDADMNLAILPKDMPLENAVMITDMMTSGFHGAELADIQMGSSVVVIGIGAVGLMGIAGAKLRGAGRIIGVGSRPICVEAAKFYGATDILNYKNGHIVDQVMKLTNGEGVDRVIMAGGGSETLSQAVSMVKPGGIISNINYHGSGDALLIPRVEWGCGMAHKTIKGGLCPGGRLMKGFAMLGINKLGWIEKERPVAGSYDAIVRPLAVSPCTSDIHTVFEGALGDRKNMILGHEAVGEVVEVGSEVKDFKPGDRVIVPCTTPDWRSLEVQAGFQQHSNGMLAGWKFSNFKDGVFGEYFHVNDADMNLAILPKDMPLENAVMITDMMTSGFHGAELADIQMGSSVVVIGIGAVGLMGIAGAKLRGAGRIIGVGSRPICVEAAKFYGATDILNYKNGHIVDQVMKLTNGEGVDRVIMAGGGSETLSQAVSMVKPGGIISNINYHGSGDALLIPRVEWGCGMAHKTIKGGLCPGGRLRAEMLRDMVVYNRVDLSKLVTHVYHGFDHIEEALLLMKDKPKDLIKAVVIL | not failed
2 | MEVDLSGFNIDAPRWDQCTFLGRVKHFFNITDPRTVFVSEQELDWAKSVVEKSRMGLMPPGTQVEQLLYAKKLYDSAFHPDTGEKMNVIGRMSFQVPGGMIITGFMLQFYRTMPAVVFWQWVNQSFNALVNYTNRNAVSPTSVR | failed
3 | MAEFTHLVNERRSASNFLSGHPITKEDLNEMFELVALAPSAFNLQHTKYVTVLDQDVKEKLKQAANGQYKVVSSSAVLLVLGDKQAYQQAADIYEGLKVLGILNKQEYDHMVQDTVSFYENRGEQFKRDEAIRNASLSAMMFMLSAAAAGWDTCPMIGFDAEAVKRILNIDDQFEVVMMITIGKEKTESRRPRGYRKPVNEFVEYM | not failed
4 | MSRKPLIAGNWKMNLNHYEAIALVQKIAFSLPDKYYDRVDVAVIPPFTDLRSVQTLVDGDKLRLTYGAQDLSPHDSGAYTGDVSGAFLAKLGCSYVVVGHSERRTYHNEDDALVAAKAATALKHGLTPIVCIGEHLDVREAGNHVAHNIEQLRGSLAGLLAEQIGSVVIAYEPVWAIGTGRVASAADAQEVCAAIRKELASLASPRIADTVRVLYGGSVNAKNVGDIVAQDDVDGGLVGGASLDGEHFATLAAIAAGGPLP | not failed
5 | MVKLELLKQSDASALLKFELNNKEWFESFIEARDDDFFDDNGIKEHVNFCLAEYKKGLLYPTLIKDEDGQILGRANLYNIDRVKNSGSIGYRIGEEFTSQGLATLATKELLEIGKNRYELSSINAVASTDNAASQKVLIKNGFKEVGFKPEFAFVDGEIIDCYEYRCLIQQLTPVM | failed
6 | MIDMFPMEKGEEQETYELIVRVFHKYVAPVYSENGVARFLGMLSPEGLSEMNNGKNSFVIVARDQSKIIGMISVINDSHIALFFVSPRYQGKGIGKNILDEAIKNCLNRNPELSAVTVSSSPNSKSFYEEAGFEVIGLEHHHHHH | not failed
7 | MSRLSAAVVAIDGPAGTGKSSVSRRLARELGARFLDTGAMYRIVTLAVLRAGADPSDIAAVETIASTVQMSLGYDPDGDSCYLAGEDVSVEIRGDAVTRAVSAVSSVPAVRTRLVELQRTMAEGPGSIVVEGRDIGTVVFPDAPVKIFLTASAETRARRRNAQNVAAGLADDYDGVLADVRRRDHLDSTRAVSPLQAAGDAVIVDTSDMTEAEVVAHLLELVTRRSEAVR | not failed
8 | MFDPKLLPATRKILDLPARLLVRVGVSADQVTITGFIIGLLAVPFLAFELYEFALAAILLNRLCDGLDGAVARRTQLTDAGGFLDIVLDFIFYSAVVFGFLLASPEQNAIASGLLLVTFMGTGSTFLAFACIAGKRGIENPEYPNKSLHYMGGLTEGFETILAFVAFCLWPQHFSVLAYIFAAACWLTAITRIVAGYRTLKQPGAKPESTNV | not failed
9 | MQKFLDWLERVLTPLAKVIGENKYLVAIRDGFLLSTPLLIVGSVFLLIANFPLPQWDTWMSHLLGKDWATMMSVPASASFDVMTILAVVGIAYSLGKQFNVDAMQAGIIALVSFFIVTPYQTLFTPENSSKVYEVTSLPLKWMGSSGLFLGMIVALIATRLFVAIVRKGWTIKMPEGVPPTVVKSFEALIPSFLVVTLMFLVNWLAALTPYGNLQDVIFEFLQTPLLSLGNTLGAMSIAYLFLHFFWFFGINGGSVVGAVFNPVLRALSVENLQAFKDGHEIPNIITGQFQDMFATFGGAGSTLSLIIVMVLFCKSQRIKKLSQLSLIPGVFGINEPIIFGLPIVLNPILLIPFVLVPAINIIIAYFAMDWGLVPLTNGIQLPWTTPPIISGFLVSGWQGSILQALLLVLGMFIYYPFIRVMDDQYLREEWKAQEEESEEIDFDSFDFDDL | failed
10 | MRLNKLFILYSLFGILMASCIKDEAPNAEADITGISFEEDVLASARFNLNPSYNDNLQAYPILVKVKEGTPLNKLSPLFELTPGATISPESGSEHDFSDGKRVKYTVTSENKAWQRVYSIGVREQSVSDIPNEFHFEDIRLINGINPKYKYQEFYEEQDGLELTWASGNEGFNWAASSSATENYPTSQYDNGKNGKCAKLETRLTGSLGAMVGMPIAAGNLFIGEFDMTNALTSPLKATHFGTPFCYKPSRLKGWYKYKAGERFYENGGYTDRKDVMNIYAIFYEGESYNEAGEVTEVILDGNLPNQNYEHPSMVALALISNPHETDDWEAFDIPFDYQRYGKEIDETKLAKGKYKLSIIFASSKNGATFEGAPGSTLLVDDVELIFE | failed
11 | MIDNENNVNEPAEEESFAELFEKSNRRTERLRPGSKVDARVLKIGAEWVFLDIGSKGEGVMERKELLDKDGNLTVAEGDTIPVWFVKVERNEMRFTTKVGTGQAGLSALEDAYRAGIPVEGNVEKEIKGGFEIKVGGTVRAFCPYSQISLRRAANPAEFVGRQLLFKVVEFAERGRNIVLSHRAILEEEERQKREALKDTLKEGTTLTGTVTRLMPFGAFVDIGGVEGLIPISEAGWSRVKEIGDVLSVGEQVTALVKRIDWENNKISLSLRDVQADPWEGIAERFPEGSYHTGTVARLAPFGAFVTLAPGIDGLIHISKLGAGKRIAHPREVLKEGDAVEVTVEGVDRESRRLSLALAATKRAAEEEERSIAEFRGKGAAQTKDSMGTFGDILKAQLDDKK | failed
12 | MPDADVNDFELVDVDQKAADKAIKDLGVKATIDEVCTVGEEGYVVTATDKEGYGGDIKITVGITADGTINGISILSISETAGLGMRATEPAFYEQYQGKQAEKFVVSKDGGDGEPIDALSGATITSRAVTGAVNAALGYYQNAFLEHHHHHH | not failed
13 | MNFDLYMNGVVEQARNEIESAGYEQLTTAEDVDKVLKQDGTTLVMINSVCGCAGGIARPAASHALHYDVLPDRLVTVFAGQDKEATQRAREYFEGYAPSSPSFALVKDGKITEMIERHQIEGHDVMNVINQLQTLFNKYC | not failed
14 | MKYWMLLFALLWVSYGTGMARKTEKVVNNGIPWFDDRGEIVNAHGACIVEENGRYYLFGEYKSDKSNAFPGFSCYSSDDLVNWKFERVVLPMQSSGILGPDRVGERVKVMKCPSTGEYVMYMHADDMNYKDPHIGYATCSTIAGEYKLHGPLLYEGKPIRRWDMGTYQDTDGTGYLLLHGGIVYRLSKDYRTAEEKVVSGVGGSHGESPAMFKKDGTYFFLFSNLTSWEKNDNFYFTAPSVKGPWTRQGLFAPEGSLTYNSQTTFVFPLKCGEDTIPMFMGDRWSYPHQASAATYVWMPMQVDGTKLSIPEYWPSWDVDKLKPVNPLRKGKTVDLKKITFSKEADWKVEEGRISSNVKGSTLSIPFTGSCVAVMGETNCHSGYARMNILDKKGEKIYSSLVDFYSKANDHATRFKTPQLAEGEYTLVIEVTGISPTWTDKTKRIYGSDDCFVTITDIVKL | failed
15 | MPSKQDVLLLDYWDQWAEAYRINGKSINTVYRYKLFRKHLKSRFDGRKLNSIRPIEWQKFINDFAAGKDRKEKTTRKRPRERSKDIVTKMNSYVRGMVKAAINERILFSDFTFGTKTSGVRSSGKVKVLEHHHHHH | not failed
16 | AHQYGVKSYIGIPRSYSHDRTDFMQSEQAEILYYDGKYEETVEFIRDFSKDNGLYDASPGSANSSIDKMMYATIAFEIYEALLTVPSYVIVPVGNGTTLAGIYHGFRRMYDEGVIDHLPRMVGVSTSGGNPIVDSWRHGYSRVVDLNPEEIRETSINEPLVSYRSFDGQDALSAIRETHGRAMYVSDEEMVYYSNLIYSAEGLNPLPASASAVAAIGHLKVKQDETVVSVITGRQI | failed
